Reference: publication PMC10068178

Molecular target: α-synuclein aggregates (small fibrils, oligomeric/protofibrillary species) formed in the aggregation reaction (UniProt P37840)

human serum high-density lipoprotein (HDL) (complex)
diagnostic α-syn SAA on PD CSF, increase of the time to reach the fluorescence threshold of 5000 a.u. (TTT) against neat samples, HDL at 2X (~ 24%) and 5X the CSF physiological concentration: 55%
